The source of these data is the supplement of paper PMC10126150.

The data set deals with ATP. Put plainly: switch fluorescence ratio, 500 uM ATP over buffer (Cy3 cluster intensity, sum of 5 cycles each) (fold (ratio)); higher = stronger signal-on switching upon ATP binding; sequences stand for … in TCGTCGGCAGCGTCAGATGTGTATAAGAGACAGTTTTTTTTTTTTTTTTTTTTTTTTT…TC. Conditions: aptamer strand: ATP DNA aptamer (quencher-CACCTGGGGGAGTATTGCGGAGGAAGG + anchor), 100 nM annealed; ATP concentration: 500 uM. The essentials:
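Switching-strand clusters labelled with Cy3 on a modified Illumina MiSeq flow-cell were annealed to 100 nM quencher-labelled ATP aptamer, imaged in selection buffer, and re-imaged after 15 min with 500 uM ATP at 22 °C. This was done over five cycles with NaOH stripping and re-annealing in between. The fluorescence ratio is summed target-cycle over summed buffer-cycle Cy3 intensity per cluster, averaged per switch-domain sequence, excluding clusters outside 100-1000 RFU.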

± gives the standard deviation of the averaged measurements.
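Note: ATP exposure 15 min at 22 °C before imaging.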

With ATGGGGAAAT, the switch fluorescence ratio was 0.984 ± 0.021.

On to ATGGGGACGG, for which the switch fluorescence ratio amounted to 1.013 ± 0.0035.

With ATGGGGATCA, the switch fluorescence ratio came out at 1.017 ± 0.0022.

For ATGGGGATTA, the switch fluorescence ratio is 0.9956 ± 0.0092.

As to ATGGGGATTT, the switch fluorescence ratio amounted to 0.991 ± 0.01.

Turning to ATGGGGGAAA, the switch fluorescence ratio came to 0.991 ± 0.011.

Regarding ATGGGGGAAC, the switch fluorescence ratio was 0.975 ± 0.011.

In the case of ATGGGGGCCA, the switch fluorescence ratio was 0.974 ± 0.019.

ATGGGGGGAT: the switch fluorescence ratio was 1.23 ± 0.58.

ATGGGGGGGC: the switch fluorescence ratio worked out at 1.01 ± 0.022.

With ATGGGGGGGT, the switch fluorescence ratio came to 0.999 ± 0.025.

For ATGGGGGGTA, the switch fluorescence ratio came to 0.986 ± 0.044.

For ATGGGGGGTC, the switch fluorescence ratio came to 0.985 ± 0.041.

For ATGGGGGTAA, the switch fluorescence ratio was 1.01 ± 0.024.

For the sequence ATGGGGGTCA, the switch fluorescence ratio came out at 0.998 ± 0.015.

As to ATGGGGGTTA, the switch fluorescence ratio came out at 0.987 ± 0.04.

With ATGGGGTGTC, the switch fluorescence ratio amounted to 0.943 ± 0.067.

For the sequence ATGGGTAGTT, the switch fluorescence ratio was found to be 0.977 ± 0.022.

ATGGGTATTG: the switch fluorescence ratio came out at 1.009 ± 0.0039.

On to ATGGGTCCAG, for which the switch fluorescence ratio worked out at 1.01 ± 0.019.

For the sequence ATGGGTCTCG, the switch fluorescence ratio came to 0.966 ± 0.019.

As to ATGGTAGCAA, the switch fluorescence ratio was 2.05 ± 0.14.

With ATGGTATTTG, the switch fluorescence ratio was 0.998 ± 0.037.

As for ATGGTCGCGG, the switch fluorescence ratio is 0.985 ± 0.035.

Turning to ATGGTCTTTT, the switch fluorescence ratio amounted to 1.014 ± 0.0032.

As to ATGGTGAGGA, the switch fluorescence ratio came to 0.995 ± 0.018.

Regarding ATGGTGCGGA, the switch fluorescence ratio stood at 0.956 ± 0.06.

ATGGTGCGGT: the switch fluorescence ratio was determined as 0.987 ± 0.02.

As for ATGGTGGGGA, the switch fluorescence ratio was found to be 1.03 ± 0.03.

For ATGGTGGTTT, the switch fluorescence ratio turned out to be 0.998 ± 0.063.

For the sequence ATGGTGTTAT, the switch fluorescence ratio amounted to 0.989 ± 0.014.

Turning to ATGGTTGAGG, the switch fluorescence ratio was 0.987 ± 0.031.

ATGGTTTCGA: the switch fluorescence ratio is 0.982 ± 0.04.

In the case of ATGGTTTCGC, the switch fluorescence ratio stood at 0.9932 ± 0.0067.

On to ATGGTTTCTT, for which the switch fluorescence ratio is 1 ± 0.034.

As for ATGTAAAATT, the switch fluorescence ratio came to 0.972 ± 0.038.

ATGTAACTAT: the switch fluorescence ratio amounted to 1.03 ± 0.021.

For ATGTAAGATT, the switch fluorescence ratio is 0.9891 ± 0.0047.

Turning to ATGTAATCAC, the switch fluorescence ratio is 1.04 ± 0.049.

Take ATGTAATTCG: the switch fluorescence ratio worked out at 1.002 ± 0.0086.

Turning to ATGTAGCGAC, the switch fluorescence ratio came out at 1.44 ± 0.39.

Take ATGTAGGAAC: the switch fluorescence ratio stood at 0.999 ± 0.012.

For the sequence ATGTAGGTTA, the switch fluorescence ratio came out at 0.987 ± 0.018.

In the case of ATGTAGTTCC, the switch fluorescence ratio came out at 1.064 ± 0.0022.

For ATGTATGATA, the switch fluorescence ratio turned out to be 0.967 ± 0.013.

In the case of ATGTATGTTA, the switch fluorescence ratio is 0.978 ± 0.055.

Regarding ATGTATTTAT, the switch fluorescence ratio was found to be 1.04 ± 0.061.

As to ATGTCAGGAA, the switch fluorescence ratio came out at 1.02 ± 0.041.

On to ATGTCCCGGT, for which the switch fluorescence ratio was 0.974 ± 0.025.

As for ATGTCCCGTT, the switch fluorescence ratio amounted to 0.98 ± 0.014.

Consider ATGTCCGGGG, for which the switch fluorescence ratio was 0.985 ± 0.042.

Consider ATGTCCGGGT, for which the switch fluorescence ratio is 1.03 ± 0.032.

In the case of ATGTCCGGTT, the switch fluorescence ratio amounted to 1 ± 0.019.

As for ATGTCGATGC, the switch fluorescence ratio was determined as 1.01 ± 0.032.

For ATGTCGGTCG, the switch fluorescence ratio worked out at 1.02 ± 0.012.

On to ATGTCTTGGC, for which the switch fluorescence ratio is 0.998 ± 0.03.

With ATGTCTTGTG, the switch fluorescence ratio was 0.985 ± 0.026.

In the case of ATGTGAAGAG, the switch fluorescence ratio was found to be 0.9952 ± 0.003.

ATGTGACTGG: the switch fluorescence ratio was 0.986 ± 0.044.

With ATGTGAGGGT, the switch fluorescence ratio is 1.017 ± 0.0039.

Regarding ATGTGAGTAT, the switch fluorescence ratio worked out at 0.9753 ± 0.0028.

Regarding ATGTGCAGCG, the switch fluorescence ratio is 1.025 ± 0.0049.

Regarding ATGTGCCTGC, the switch fluorescence ratio worked out at 1.07 ± 0.03.

For ATGTGCGTAG, the switch fluorescence ratio stood at 1.01 ± 0.017.

On to ATGTGGGCAA, for which the switch fluorescence ratio was 1.08 ± 0.013.

As to ATGTGGGCTA, the switch fluorescence ratio was 0.992 ± 0.03.
